The values below come from the Immune Epitope Database (IEDB).

pKd: −log10 of the molar value.

Some targets named below: HLA-A*02:02; HLA-A*02:06; HLA-A*02:03; HLA-A*68:01; HLA-A*11:01; HLA-A*33:01; HLA-A*31:01; HLA-A*03:01.
Test in all cases: IEDB peptide-MHC binding, purified MHC/competitive/radioactivity; filed as Kd, often an IC50 or EC50 that approximates it; ≥ and ≤ were set here for values at or beyond the usual limits of such assays
The mark [1] stands for this setting: source organism: Vaccinia virus WR.
The mark [2] stands for this setting: source organism: SARS coronavirus Tor2.
Where [3] appears, read: source organism: Mammarenavirus guanaritoense.
[4] abbreviates: source organism: Dengue virus 2 Jamaica/1409/1983.
Where [5] appears, read: source organism: Dengue virus 3 Martinique/1243/1999.
The mark [6] stands for this setting: source organism: Lassa virus Josiah.
Setting [7] is: source organism: Mammarenavirus juninense.
Where [8] appears, read: source organism: Mammarenavirus machupoense.

For the sequence TIILNKIVQL, the figures for the negative-log Kd (pKd) with HLA-A*02:02 (setting [1]), with HLA-A*02:06 (setting [1]) and in the experiment with HLA-A*02:03 (setting [1]) were 5.75, 7.52 and at most 4.31, respectively.
Take LLNVQTLISL: the negative-log Kd (pKd) in the experiment with HLA-A*02:02 (setting [1]) was 7.63; with HLA-A*02:06 (setting [1]) it was 7.01; with HLA-A*02:03 (setting [1]), 7.79.
The matching figures for RIYCSLFKNV: 6.04, 8.15 and 7.53.
The matching figures for LISLINSLV: 9.32, 7.14 and 9.32.
The matching figures for NIDSIMSMM: 7.60, 5.33 and 6.06.
Regarding LLWFLTGTFV, the pKd with HLA-A*02:02 (setting [1]) was 8.62; with HLA-A*02:06 (setting [1]), 7.74; with HLA-A*02:03 (setting [1]), 8.04.
As for SLVKPTVYV, the pKd was 6.97 with HLA-A*02:02 (setting [2]), 6.33 with HLA-A*02:06 (setting [2]) and 7.43 with HLA-A*02:03 (setting [2]).
The matching figures for MLLTFLTSLL: 9.13, 7.61 and 8.13.
On to SMYVIPDEL, for which the negative logarithm of the Kd (pKd) was 8.30 with HLA-A*02:02 (setting [1]), 5.55 with HLA-A*02:06 (setting [1]) and 7.87 in the experiment with HLA-A*02:03 (setting [1]).
The matching figures for AITLVVISVI: 6.39, 5.70 and 6.10.
With EVTPEYIKDL, the negative-log Kd (pKd) in the experiment with HLA-A*02:02 (setting [1]) was 5.82; in the experiment with HLA-A*02:06 (setting [1]), 5.12; in the experiment with HLA-A*02:03 (setting [1]), 5.64.
With EQGDIALAL, the figures for the pKd with HLA-A*02:02 (setting [1]), with HLA-A*02:06 (setting [1]) and in the experiment with HLA-A*02:03 (setting [1]) were 6.15, 5.32 and 4.95, respectively.
With ATLNTLITL, the pKd was 6.43 in the experiment with HLA-A*02:02 (setting [1]), 8.02 with HLA-A*02:06 (setting [1]) and 6.24 with HLA-A*02:03 (setting [1]).
Consider IICEDAMYYA, for which the pKd with HLA-A*02:02 (setting [1]) is 7.62; with HLA-A*02:06 (setting [1]) it was 8.06; with HLA-A*02:03 (setting [1]), 6.97.
Regarding LTPFEKEFT, the results for the negative logarithm of the Kd (pKd) with HLA-A*02:02 (setting [1]), with HLA-A*02:06 (setting [1]) and in the experiment with HLA-A*02:03 (setting [1]) were 4.77, at most 4.11 and at most 4.68, respectively.
As for HVLLPFYET, the negative logarithm of the Kd (pKd) in the experiment with HLA-A*02:02 (setting [1]) was 4.79; with HLA-A*02:06 (setting [1]), 5.76; with HLA-A*02:03 (setting [1]), 4.73.
Turning to DLNAVTTNNL, the pKd was 5.74 with HLA-A*02:02 (setting [1]), 5.12 with HLA-A*02:06 (setting [1]) and 5.79 with HLA-A*02:03 (setting [1]).
The matching figures for LVQYRILPMI: 4.90, 6.15 and 5.92.
As to QLVFNSISA, the pKd with HLA-A*02:02 (setting [1]) is 5.32; in the experiment with HLA-A*02:06 (setting [1]), 5.42; with HLA-A*02:03 (setting [1]), 5.81.
Take YCNYTRFWYI: the pKd with HLA-A*02:02 (setting [3]) was 5.98; with HLA-A*02:06 (setting [3]), 7.09; with HLA-A*02:03 (setting [3]), 5.36.
As to NIFMTLVPV, the results for the pKd with HLA-A*02:02 (setting [1]), with HLA-A*02:06 (setting [1]) and with HLA-A*02:03 (setting [1]) were 7.06, 6.64 and 8.20, respectively.
Turning to DVFRPLFDFV, the pKd with HLA-A*02:02 (setting [1]) was 5.99; in the experiment with HLA-A*02:06 (setting [1]) it was 6.63; with HLA-A*02:03 (setting [1]), 5.59.
For the sequence EQYTCNKPYT, the values for the pKd with HLA-A*02:02 (setting [1]), in the experiment with HLA-A*02:06 (setting [1]) and with HLA-A*02:03 (setting [1]) were 4.85, at most 4.34 and 5.52, respectively.
With DLFMSHVKSV, the values for the pKd in the experiment with HLA-A*02:02 (setting [1]), with HLA-A*02:06 (setting [1]) and with HLA-A*02:03 (setting [1]) were 5.47, 4.70 and 7.38, respectively.
Consider RALIFILLTA, for which the pKd in the experiment with HLA-A*02:06 (setting [4]) was 6.85.
On to TLYAVATTIL, for which the negative logarithm of the Kd (pKd) with HLA-A*02:03 (source organism: Dengue virus 4 Philippines/H241/1956) was 7.00.
With FVVTTDISEM, the negative-log Kd (pKd) with HLA-A*02:06 (setting [5]) was 6.53.
As to TLATGPITTL, in the experiment with HLA-A*02:03 (setting [5]), the negative-log Kd (pKd) was 7.92.
Consider ASAWTLYAV, for which, in the experiment with HLA-A*02:06 (setting [4]), the negative logarithm of the Kd (pKd) was 8.09.
For WALRHPGFTV, in the experiment with HLA-A*02:06 (source organism: Dengue virus 1 Brazil/97-11/1997), the pKd was 7.08.
Consider TCQGSDDIR, for which the pKd with HLA-A*68:01 (setting [6]) was 4.84; with HLA-A*11:01 (setting [6]), at most 4.11; with HLA-A*33:01 (setting [6]), 4.92; with HLA-A*31:01 (setting [6]) it was at most 4.65; with HLA-A*03:01 (setting [6]), at most 4.11.
TIQRFSSLRR: the pKd in the experiment with HLA-A*68:01 (setting [1]) was 8.14; with HLA-A*11:01 (setting [1]), 8.73; in the experiment with HLA-A*33:01 (setting [1]) it was 8.01; with HLA-A*31:01 (setting [1]), 8.81; with HLA-A*03:01 (setting [1]) it was 7.10.
Regarding ELNGKNIEDV, the pKd in the experiment with HLA-A*02:06 (source organism: Homo sapiens) is at most 4.16.
Consider IVNAANIHLK, for which the negative-log Kd (pKd) is 7.18 in the experiment with HLA-A*68:01 (setting [2]); 6.98 with HLA-A*11:01 (setting [2]); at most 4.15 in the experiment with HLA-A*33:01 (setting [2]); 5.65 with HLA-A*31:01 (setting [2]); 7.29 with HLA-A*03:01 (setting [2]).
The matching figures for NVYADSFVVK: 7.53, 7.00, 6.01, 6.41 and 7.12.
In the case of AIEPSGNNY, the pKd in the experiment with HLA-A*68:01 (setting [1]) is at most 4.11; in the experiment with HLA-A*11:01 (setting [1]), 5.24; in the experiment with HLA-A*33:01 (setting [1]) it was at most 4.11; in the experiment with HLA-A*31:01 (setting [1]) it was at most 4.11; in the experiment with HLA-A*03:01 (setting [1]) it was at most 4.22.
QLCYCPASKK: the negative-log Kd (pKd) is 6.33 in the experiment with HLA-A*68:01 (setting [1]); 7.02 in the experiment with HLA-A*11:01 (setting [1]); at most 4.23 in the experiment with HLA-A*33:01 (setting [1]); 4.90 in the experiment with HLA-A*31:01 (setting [1]); 6.77 with HLA-A*03:01 (setting [1]).
For the sequence WIMLLQFAY, the negative logarithm of the Kd (pKd) is at most 4.64 in the experiment with HLA-A*68:01 (setting [2]); 4.85 with HLA-A*11:01 (setting [2]); at most 4.11 with HLA-A*33:01 (setting [2]); 5.27 in the experiment with HLA-A*31:01 (setting [2]); 5.39 with HLA-A*03:01 (setting [2]).
PLLCNLNKSH: the negative-log Kd (pKd) was at most 4.34 with HLA-A*68:01 (setting [7]); at most 4.16 with HLA-A*11:01 (setting [7]); at most 4.15 with HLA-A*33:01 (setting [7]); at most 4.15 with HLA-A*31:01 (setting [7]); at most 4.15 with HLA-A*03:01 (setting [7]).
For the sequence SARNKLFKR, the pKd with HLA-A*68:01 (setting [1]) was 6.36; in the experiment with HLA-A*11:01 (setting [1]), 5.24; in the experiment with HLA-A*33:01 (setting [1]), 7.16; with HLA-A*31:01 (setting [1]) it was 8.90; with HLA-A*03:01 (setting [1]), at most 4.23.
The matching figures for RLTDTEYRAR: 6.09, 6.10, 6.33, 8.88 and 6.18.
TCNDHYLCLR: the negative-log Kd (pKd) in the experiment with HLA-A*68:01 (setting [8]) is 5.66; with HLA-A*11:01 (setting [8]) it was at most 4.21; with HLA-A*33:01 (setting [8]), 6.14; with HLA-A*31:01 (setting [8]) it was 6.91; with HLA-A*03:01 (setting [8]) it was at most 4.48.
Consider GTIAGGVCY, for which the pKd is 5.10 with HLA-A*68:01 (setting [1]); 7.16 in the experiment with HLA-A*11:01 (setting [1]); at most 4.11 with HLA-A*33:01 (setting [1]); at most 4.20 with HLA-A*31:01 (setting [1]); 5.39 with HLA-A*03:01 (setting [1]).
Take YVGIKLGDK: the pKd is 5.68 with HLA-A*68:01 (setting [1]); 6.19 with HLA-A*11:01 (setting [1]); at most 4.30 with HLA-A*33:01 (setting [1]); at most 4.60 with HLA-A*31:01 (setting [1]); 6.01 with HLA-A*03:01 (setting [1]).
The matching figures for EFCVDHPFIY: at most 4.26, 4.96, at most 4.35, at most 4.42 and at most 4.15.
MSSSVDVDIY: the pKd in the experiment with HLA-A*68:01 (setting [1]) is 6.60; with HLA-A*11:01 (setting [1]) it was 4.90; in the experiment with HLA-A*33:01 (setting [1]), at most 4.53; with HLA-A*31:01 (setting [1]), at most 4.15; in the experiment with HLA-A*03:01 (setting [1]) it was at most 4.59.
Turning to GMSYYCKSHK, the negative-log Kd (pKd) in the experiment with HLA-A*68:01 (setting [2]) was 5.86; with HLA-A*11:01 (setting [2]) it was 7.04; with HLA-A*33:01 (setting [2]) it was 5.00; with HLA-A*31:01 (setting [2]), 6.95; in the experiment with HLA-A*03:01 (setting [2]) it was 7.70.
FCNLSDAHK: the pKd in the experiment with HLA-A*68:01 (setting [6]) was 5.98; with HLA-A*11:01 (setting [6]) it was at most 4.29; with HLA-A*33:01 (setting [6]) it was 5.36; with HLA-A*31:01 (setting [6]) it was at most 4.11; with HLA-A*03:01 (setting [6]), at most 4.44.
For TVYVYSRVK, the negative logarithm of the Kd (pKd) is 6.04 in the experiment with HLA-A*68:01 (setting [2]); 6.84 in the experiment with HLA-A*11:01 (setting [2]); 5.97 with HLA-A*33:01 (setting [2]); 6.11 with HLA-A*31:01 (setting [2]); 7.17 with HLA-A*03:01 (setting [2]).
Consider ASLPYGANK, for which the pKd in the experiment with HLA-A*68:01 (setting [2]) is 4.78; in the experiment with HLA-A*11:01 (setting [2]), 6.95; with HLA-A*33:01 (setting [2]) it was at most 4.28; with HLA-A*31:01 (setting [2]), 6.29; in the experiment with HLA-A*03:01 (setting [2]) it was 6.75.
YSKKFQESFY: the pKd with HLA-A*68:01 (setting [1]) is 5.75; with HLA-A*11:01 (setting [1]), 5.13; with HLA-A*33:01 (setting [1]) it was at most 4.15; with HLA-A*31:01 (setting [1]), 4.84; with HLA-A*03:01 (setting [1]), 5.57.

Broadly, the pKd is the negative decadic logarithm of the Kd, by convention in mol/L.
